This assay deals with 17b (CD4-induced human monoclonal antibody). The experiment in a line: flow cytometry of transfected 293T cells: staining with 10 μg/ml 17b with or without sCD4-183, detection with APC anti-human IgG F(ab')2, arithmetic mean APC fluorescence of live (propidium iodide negative) single cells; 'All titrations …. Conditions: sCD4-183 at 0, 0.078125, 0.3125, 1.25, 5, 20, 80 μM (row value in value_extra.sCD4_183_uM), 20 min staining at room temperature, CAUTION: 17b staining of cell-surface trimers with sCD4, mostly reports trimer opening, normalized per Env, one titration each. Higher = more 17b staining of cell-surface Env. 17b's epitope is exposed, numbering: unknown, sequence starts at 1. In general terms: In flow cytometry, cells or beads pass a laser one at a time.

Setting [1] is: AUC over sCD4-183 0-80 μM, parent: 0.907, scale: area under the normalized MFI curve, log10 x-axis.
The mark [2] stands for this setting: sCD4-183 0 μM, parent: 0.0187, scale: normalized MFI.
The mark [3] stands for this setting: sCD4-183 0.078125 μM, parent: 0.0465, scale: normalized MFI.
[4] abbreviates: sCD4-183 0.3125 μM, parent: 0.0578, scale: normalized MFI.
Where [5] appears, read: sCD4-183 1.25 μM, parent: 0.0973, scale: normalized MFI.
[6] abbreviates: sCD4-183 5 μM, parent: 0.198, scale: normalized MFI.
The mark [7] stands for this setting: sCD4-183 20 μM, parent: 0.585, scale: normalized MFI.
The mark [8] stands for this setting: sCD4-183 80 μM, parent: 1, scale: normalized MFI.

Regarding “HIV-1 JR-CSF envelope glycoprotein gp160 (Env), P20871 JR-CSF_D167A”, the screen value is, setting by setting: under setting [1], 2.23; under setting [2], 0.0723; under setting [3], 0.181; under setting [4], 0.357; under setting [5], 0.663; under setting [6], 0.945. Besides, the screen value under setting [7] worked out at 0.977 and the screen value under setting [8] was found to be 1.

In the case of “HIV-1 JR-CSF envelope glycoprotein gp160 (Env), P20871 JR-CSF_F176A”, the screen value is 3.09 under setting [1]; 0.522 under setting [2]; 0.639 under setting [3]; 0.761 under setting [4]; 0.839 under setting [5]; 0.927 under setting [6]. In addition, the screen value is, setting by setting: under setting [7], 0.946; under setting [8], 1.

With “HIV-1 JR-CSF envelope glycoprotein gp160 (Env), P20871 JR-CSF_N301A”, the screen value by setting is: under setting [1], 2.59; under setting [2], 0.178; under setting [3], 0.314; under setting [4], 0.564; under setting [5], 0.801; under setting [6], 0.974. Also, the screen value reads like this: under setting [7], 0.958; under setting [8], 1.

For “HIV-1 JR-CSF envelope glycoprotein gp160 (Env), P20871 JR-CSF_Y177A”, the screen value came out at 2.87 under setting [1]; 0.317 under setting [2]; 0.576 under setting [3]; 0.719 under setting [4]; 0.858 under setting [5]; 0.82 under setting [6]. In addition, the screen value worked out at 0.942 under setting [7] and 1 under setting [8].

“HIV-1 JR-CSF envelope glycoprotein gp160 (Env), P20871 JR-CSF_E172A”: the screen value turned out to be 0.0468 under setting [2]; 0.104 under setting [3]; 0.136 under setting [4]; 0.175 under setting [5]; 0.305 under setting [6]; 0.636 under setting [7]. Also, under setting [8], the screen value came to 1.

Take “HIV-1 JR-CSF envelope glycoprotein gp160 (Env), P20871 JR-CSF_G324A”: the screen value is 2.77 under setting [1]; 0.248 under setting [2]; 0.463 under setting [3]; 0.601 under setting [4]; 0.836 under setting [5]; 0.959 under setting [6]. The screen value reads like this: under setting [7], 0.96; under setting [8], 1.

For “HIV-1 JR-CSF envelope glycoprotein gp160 (Env), P20871 JR-CSF_H308A”, the screen value is, setting by setting: under setting [1], 0.82; under setting [2], 0.0195; under setting [3], 0.0512; under setting [4], 0.0642; under setting [5], 0.0948; under setting [6], 0.178. The screen value is, setting by setting: under setting [7], 0.449; under setting [8], 1.

For the substance “HIV-1 JR-CSF envelope glycoprotein gp160 (Env), P20871 JR-CSF_K305A”, the screen value is, setting by setting: under setting [1], 2.6; under setting [2], 0.182; under setting [3], 0.383; under setting [4], 0.554; under setting [5], 0.754; under setting [6], 0.935. The screen value stood at 1 under setting [7] and 0.978 under setting [8].

For the substance “HIV-1 JR-CSF envelope glycoprotein gp160 (Env), P20871 JR-CSF_Y318A”, the screen value came out at 2.53 under setting [1]; 0.234 under setting [2]; 0.39 under setting [3]; 0.538 under setting [4]; 0.703 under setting [5]; 0.901 under setting [6]. Besides, the screen value under setting [7] worked out at 0.923 and the screen value under setting [8] is 1.

As for “HIV-1 JR-CSF envelope glycoprotein gp160 (Env), P20871 JR-CSF_V127A”, the screen value under setting [1] turned out to be 2.51; the screen value under setting [2] is 0.217; the screen value under setting [3] was found to be 0.347; the screen value under setting [4] stood at 0.491; the screen value under setting [5] came to 0.715; the screen value under setting [6] stood at 0.915. Moreover, the screen value is, setting by setting: under setting [7], 1; under setting [8], 0.951.

For the origin of these results see article PMC11774494.
